Assay results published in patent US20170240883A1, “CYCLIC PEPTIDES EXPRESSED BY A GENETIC PACKAGE” (Miti Biosystems GmbH, priority 2014, published 2017).

T1: substrate peptide NH2-KPTTVKPPSDFEEWTINVC-COOH
T1 chain: KPTTVKPPSDFEEWTINVC


How the values were obtained:
[1] = molecular target: T2, Human Plasma Kallikrein (Homo sapiens, UniProt P03952); assay: Phage selection of ProcM-modified SynLib1 library on biotinylated kallikrein (output titre); assay type: binding; conditions: 24 clones from R3 6.25 nM kallikrein output
T2 construct: purchased Molecular Innovations, Inc, USA
Experimental: Human Plasma Kallikrein (Molecular Innovations, Inc, USA) at 1.15 mg/ml (13 μM) solution in 4 mM acetate, 150 mM NaCl, pH 5.3 was biotinylated using NHS-PEG4-Biotin from the EZ-link micro-PEO4-biotinylation kit (Pierce Biotechnology, USA). 680 μl of water was added to the contents of the pre-weighed vial of biotinylation reagent to make a 5 mM solution. 1 μl of this solution was added to 100 μl of the kallikrein solution. This was incubated at RT for 1 hour prior to the separation of the biotinylated protein from the unreacted biotin, using a 2 ml Spin Desalting column (Pierce Biotechnology, USA). The volume of the kallikrein was made up to 350 μl with PBS (Formedium Ltd, UK) and was loaded onto the spin column which had been equilibrated with PBS (as per the manufacturer's instructions). When this solution had been absorbed into the column matrix, a further 50 μl of PBS was added on top and the column was spun in a centrifuge at 1000 g for 2 min. 395 μl of solution was collected, making the concentration of the biotinylated kallikrein about 3.25 μM.
150 μl of stock SynLib1 library (2.5e11 phage per μl) was added to 1850 μl of TE buffer, 2 μl 1 M TCEP (Melford Biolaboratories Ltd, UK) and incubated at RT for 20 minutes to reduce the peptides on the phage. […]

[2] = molecular target: T1, substrate peptide …

T2 sequence (P03952 20-638): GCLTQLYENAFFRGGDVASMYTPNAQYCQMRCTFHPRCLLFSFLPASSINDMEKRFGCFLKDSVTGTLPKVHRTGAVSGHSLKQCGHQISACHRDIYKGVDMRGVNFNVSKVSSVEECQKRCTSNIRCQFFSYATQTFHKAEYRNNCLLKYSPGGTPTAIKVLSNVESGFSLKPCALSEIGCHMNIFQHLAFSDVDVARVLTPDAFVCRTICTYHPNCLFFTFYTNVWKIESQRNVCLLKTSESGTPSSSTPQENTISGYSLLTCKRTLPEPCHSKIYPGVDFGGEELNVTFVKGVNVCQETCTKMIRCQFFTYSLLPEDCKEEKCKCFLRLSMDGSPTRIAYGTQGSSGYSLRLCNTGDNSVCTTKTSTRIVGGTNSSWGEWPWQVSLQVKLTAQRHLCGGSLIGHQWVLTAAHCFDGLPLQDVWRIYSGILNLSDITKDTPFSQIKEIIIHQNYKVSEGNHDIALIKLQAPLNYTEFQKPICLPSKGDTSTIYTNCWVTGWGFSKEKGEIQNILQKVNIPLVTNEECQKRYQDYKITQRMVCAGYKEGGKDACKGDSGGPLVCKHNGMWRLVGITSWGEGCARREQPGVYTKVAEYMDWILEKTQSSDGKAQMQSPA

| Molecule | share of the clones that were sequenced [1] | dehydration of the peptide, LC-ESI mass spectrometry [2] |
| --- | --- | --- |
| AACKGPSPTPNNC [clone 24] | 12.5% | – |
| Celf5ProcM (ProcM - 5-residue linker - C-terminal ProcA4.3 leader enzyme-leader fusion) (protein) MSEEQLKAFIAKVQADTSLQEQLKAEGADVVAIAKAAGFTITTEDLNSHRQNLTDDELEGVAGGSASGSGSGSAMESPSSWKTSWLAAIAPDEPHKFDRRLEWDELSEENFFAALNSEPASLEEDDPCFEEALQDALEALKAAWDLPLLPVDNNLNRPFVDVWWPIRCHSAESLRQSFVSDSAGLADEIFDQLADSLLDRLCALGDQVLWEAFNKERTPGTMLLAHLGAAGDGSGPPVREHYERFIQSHRRNGLAPLLKEFPVLGRLIGTVLSLWFQGSVEMLQRICADRTVLQQCFAIPCGHHLKTVKQGLSDPHRGGRAVAVLEFADPNSTANSSMHVVYKPKDMAVDAAYQATLADLNTHSDLSPLRTLAIHNGNGYGYMEHVVHHLCANDKELTNFYFNAGRLTALLHLLGCTDCHHENLIACGDQLLLIDTETLLEADLPDHISDASSTTAQPKPSSLQKQFQRSVLRSGLLPQWMFLGESKLAIDISALGMSPPNKPERIALGWLGFNSDGMMPGRVSQPVEIPTSLPVGIGEVNPFDRFLEDFCDGFSMQSEALIKLRNRWLDVNGVLAHFAGLPRRIVLRATRVYFTIQRQQLEPTALRSPLAQALKLEQLTRSFLLAESKPLHWPIFAAEVKQMQHLDIPFFTHLIDADALQLGGLEQELPGFIQTSGLAAAYERLRNLDTDEIAFQLRLIRGAVEARELHTTPESSPTLPPPATPEALMSSSAETSLEAAKRIAHRLLELAIRDSQGQVEWLGMDLGADGESFSFGPVGLSLYGGSIGIAHLLQRLQAQQVSLMDADAIQTAILQPLVGLVDQPSDDGRRRWWRDQPLGLSGCGGTLLALTLQGEQAMANSLLAAALPRFIEADQQLDLIGGCAGLIGSLVQLGTESALQLALRAGDHLIAQQNEEGAWSSSSSQPGLLGFSHGTAGYAAALAHLHAFSADERYRTAAAAALAYERARFNKDAGNWPDYRSIGRDSDSDEPSFMASWCHGAPGIALGRACLWGTALWDEECTKEIGIGLQTTAAVSSVSTDHLCCGSLGLMVLLEMLSAGPWPIDNQLRSHCQDVAFQYRLQALQRCSAEPIKLRCFGTKEGLLVLPGFFTGLSGMGLALLEDDPSRAVVSQLISAGLWPTESASGSGSGSAMSEEQLKAFIAKVQADTSLQEQLKAEGADVVAIAKAAGFTITTEDLNSHRQNLTDDELEGVAGG | – | one portion of the used peptide P2 was found showing triple dehydration with a m/z value of 1069.022 |
| NelfMvdDGS10 (N-terminal MvdE leader - 10-residue linker - MvdD enzyme-leader fusion) (protein) MSKNVKVSAPKAVPFFARFLAEQAVEANNSNSAPSASGSGSGSGSTSGSGSGSAMTVLIFTFSNDNESIPLVVKAIEAKGEKAFRFDTDRFPTEVKLDIYSGDFEGGIVTDGEHKLDLSEVSSVWYRRMRYGAKLPDSMDQQFREASLKECRLTVRGLIASLPGFHFDPMINVDRANNKQLQLQIARQLGLLTPRTLTSNNPEAVKQFAQDCKEQGIVTKMLSQFAIYGENKEENVVFTSPVTDDDLDNLEGLSFCPMTFQENVPKALELRTIIVGKQVFTAAINSQQLDGATYDWRKEGRALHEKWQAYNLPEDIEKKLLQLTAYFGLNYGAIDIIVTPDGRHVFLEINPVGEFFWLELFAPYFPISQAIAEILLTPTNQKPF | – | one portion of the used peptide P2 was found showing triple dehydration with a m/z value of 1069.022 |
